From publication PMC3597821

What was measured:
DmAgo2 = target: T1, DmAgo2 (Drosophila melanogaster, UniProt Q9VUQ5 403-1214); test: competitive double filter binding
T1 sequence: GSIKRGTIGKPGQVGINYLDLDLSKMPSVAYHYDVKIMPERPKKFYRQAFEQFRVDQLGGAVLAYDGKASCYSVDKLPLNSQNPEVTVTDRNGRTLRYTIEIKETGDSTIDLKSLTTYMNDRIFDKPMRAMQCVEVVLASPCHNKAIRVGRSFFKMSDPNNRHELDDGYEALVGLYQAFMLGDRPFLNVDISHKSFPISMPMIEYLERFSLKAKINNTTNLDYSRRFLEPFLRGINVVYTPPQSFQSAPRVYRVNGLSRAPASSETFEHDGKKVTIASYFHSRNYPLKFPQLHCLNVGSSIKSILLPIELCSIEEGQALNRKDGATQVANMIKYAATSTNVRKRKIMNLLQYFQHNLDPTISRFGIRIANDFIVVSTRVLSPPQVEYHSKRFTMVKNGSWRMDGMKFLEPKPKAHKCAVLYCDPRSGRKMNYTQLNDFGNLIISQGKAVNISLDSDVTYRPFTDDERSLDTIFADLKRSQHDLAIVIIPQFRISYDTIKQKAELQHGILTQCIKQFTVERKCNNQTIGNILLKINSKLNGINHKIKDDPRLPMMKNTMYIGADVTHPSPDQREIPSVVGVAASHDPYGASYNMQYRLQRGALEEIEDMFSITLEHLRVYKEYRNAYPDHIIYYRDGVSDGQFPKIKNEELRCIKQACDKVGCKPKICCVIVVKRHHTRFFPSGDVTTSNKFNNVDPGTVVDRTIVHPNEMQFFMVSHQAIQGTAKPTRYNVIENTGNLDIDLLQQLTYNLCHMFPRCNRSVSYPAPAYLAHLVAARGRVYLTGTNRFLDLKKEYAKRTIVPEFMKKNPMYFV

DmAgo1 WT = DmAgo1 WT (Drosophila melanogaster, UniProt A1Z9J5 1-950); test: filter binding

B1: bantam miRNA 23 nt (ssRNA)
RNA: UGAGAUCAUUUUGAAAGCUGAUU
modifications: 5' phosphate on labeled RNA (PNK)
Binder B1 has a Kd (DmAgo2) of 10.7 ± 1 nM.

B2: bantam guide / 43-nt target (1-12 match) (dsRNA)
RNA 1: UGAGAUCAUUUUGAAAGCUGAUU
RNA 2: AGUUCUUAAGUUAGUCGAAACAAAAUGAUCUCACAUAGGCUUA
modifications: target printed as DNA letters, assayed as RNA
B2: binds (DmAgo1 WT).
